3 substances from article PMC7317872 can be followed below.

The target of experiment [1] is Cdh23 EC1 (WT) (mouse) (UniProt Q99PF4). As to the kind of experiment: single-molecule force spectroscopy (AFM); protein anchored by its C terminus to cantilever and to coverslip (sortagging, PEG 5 kDa spacers); seven loading rates, contact time 500 ms; Bell-Evans fit.
For experiment [2] the target is unchanged. As to the kind of experiment: AUC; sedimentation velocity, 142 000 g, 20 °C, pH 7.6, 25 mM HEPES, 50 mM NaCl, 25 mM KCl, 2 mM CaCl2; EC1-2 WT at 36 μM, EC1-2 E78K at 30 μM or ~440 μM, EC1 at 45 μM.
Experiment [3] has the same target. Briefly: AUC; sedimentation equilibrium at three rotor speeds, 20 °C, pH 7.6, 25 mM HEPES, 50 mM NaCl, 25 mM KCl, 2 mM CaCl2; global fit to monomer-dimer equilibrium (SEDPHAT); dimer to monomers.
The target in experiment [4] is Cdh23 EC1-2 (WT) (mouse) (UniProt Q99PF4). As to the kind of experiment: single-molecule force spectroscopy (AFM); protein anchored by its C terminus to cantilever and to coverslip (sortagging, PEG 5 kDa spacers); seven loading rates, contact time 500 ms; Bell-Evans fit.
For experiment [5] the target is unchanged. As to the kind of experiment: SEC; analytical SEC, Superdex 200 increase 10/300, 100 μM injected, 25 mM HEPES, 25 mM KCl, 50 mM NaCl, 2 mM CaCl2, pH 7.5; 4 °C. (In gel filtration, larger molecules generally elute earlier.)
Experiment [6] has the same target. As to the kind of experiment: AUC; sedimentation velocity, 142 000 g, 20 °C, pH 7.6, 25 mM HEPES, 50 mM NaCl, 25 mM KCl, 2 mM CaCl2; EC1-2 WT at 36 μM, EC1-2 E78K at 30 μM or ~440 μM, EC1 at 45 μM.
Experiment [7] shares this target. As to the kind of experiment: AUC; sedimentation equilibrium at three rotor speeds, 20 °C, pH 7.6, 25 mM HEPES, 50 mM NaCl, 25 mM KCl, 2 mM CaCl2; global fit to monomer-dimer equilibrium (SEDPHAT); dimer to monomers.
For experiment [8] the target is unchanged. As to the kind of experiment: SAXS; proteins at 10 mg·mL^-1 in solution, SAXSpace instrument; 10 °C (methods).
The target of the next experiment is Cdh23 EC1-3 (mouse). As to the kind of experiment: SEC; analytical SEC, Superdex 200 increase 10/300, 100 μM injected, 25 mM HEPES, 25 mM KCl, 50 mM NaCl, 2 mM CaCl2, pH 7.5; 4 °C.

As usually defined, the stoichiometry N is the number of molecules, sites or subunits per partner or assembly. What is called Kd is the equilibrium constant for the complex coming apart. The low end stands for a tighter complex, the high end for a looser complex. Consider “Cdh23 EC1 (WT) (from UniProt Q99PF4 24-124) (domain or fragment)”, for which the probability of events with Cdh23 EC1 (WT) (mouse) [1] is 10%. This substance yielded a stoichiometry N with Cdh23 EC1 (WT) (mouse) [2] of 2. In the experiment with Cdh23 EC1 (WT) (mouse) [3], the Kd came to 52 µM.

Substance “Cdh23 EC1-2 (WT) (from UniProt Q99PF4 24-228) (domain or fragment)” had an intrinsic lifetime at zero force (τ0), high-force distribution with Cdh23 EC1-2 (WT) (mouse) [4] of 1220 s. In the experiment with Cdh23 EC1-2 (WT) (mouse) [4], the intrinsic lifetime at zero force (τ0), low-force distribution stood at 1.86 s. Besides, the probability of events with Cdh23 EC1-2 (WT) (mouse) [4] was determined as 6%. For the same substance, the stoichiometry N with Cdh23 EC1-2 (WT) (mouse) [5], with Cdh23 EC1-2 (WT) (mouse) [6] and with Cdh23 EC1-2 (WT) (mouse) [8] was 2 in each case. This substance returned a Kd with Cdh23 EC1-2 (WT) (mouse) [7] of 18 µM.

In the case of Cdh23 EC1-3 (domain or fragment), in the experiment with Cdh23 EC1-3 (mouse), the stoichiometry N was 2.
